This note sets out measurements from the supplement of paper PMC9112550, “Optimization of the antimicrobial peptide Bac7 by deep mutational scanning” (BMC Biology, 2022).
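Further: peptides expressed intracellularly from a pBAD plasmid library in pooled LB shake-flask culture, induced with 0.3% L-arabinose, DNA abundance read by NGS, three biological replicates, DESeq2 with apeglm shrinkage.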

The series deals with Escherichia coli TOP10. Put plainly: shrunken log2 fold change of peptide-encoding DNA abundance (4.5 h post-induction vs induction); higher = less antimicrobial activity (less host growth inhibition). The settings on record: time post-induction: 4.5 h; library: site-saturation at positions 5, 18, 19, 20.
For the sequence RRIRMRPPRLPRPRPRPRKQPRP, the “shrunken log2 fold change” value was 0.938.

RRIRWRPPRLPRPRPRPFKRPRP: the “shrunken log2 fold change” value was determined as 0.0707. Regarding RRIRNRPPRLPRPRPRPFFAPRP, the “shrunken log2 fold change” value is 0.201. For the sequence RRIRHRPPRLPRPRPRPEGSPRP, the “shrunken log2 fold change” value was -0.0192. In the case of RRIRARPPRLPRPRPRPSYHPRP, the “shrunken log2 fold change” value was -0.255. As to RRIRFRPPRLPRPRPRPKMTPRP, the “shrunken log2 fold change” value was -0.173. Consider RRIRARPPRLPRPRPRPKHKPRP, for which the “shrunken log2 fold change” value was found to be 0.172. On to RRIRGRPPRLPRPRPRPFSRPRP, for which the “shrunken log2 fold change” value amounted to 0.612. Regarding RRIRGRPPRLPRPRPRPQTFPRP, the “shrunken log2 fold change” value stood at 0.762.

Turning to RRIRHRPPRLPRPRPRPLQSPRP, the “shrunken log2 fold change” value is -0.0699. Regarding RRIRWRPPRLPRPRPRPDGMPRP, the “shrunken log2 fold change” value was 0.0134. Consider RRIRSRPPRLPRPRPRPNWDPRP, for which the “shrunken log2 fold change” value was -0.315. For the sequence RRIRTRPPRLPRPRPRPNEVPRP, the “shrunken log2 fold change” value worked out at 0.0231.

Regarding RRIRDRPPRLPRPRPRPMPGPRP, the “shrunken log2 fold change” value was determined as 0.065. For RRIRKRPPRLPRPRPRPLRMPRP, the “shrunken log2 fold change” value came to 0.236. In the case of RRIRCRPPRLPRPRPRPKCGPRP, the “shrunken log2 fold change” value is 0.0778. Turning to RRIRIRPPRLPRPRPRPRDSPRP, the “shrunken log2 fold change” value was -0.346. The result for RRIRRRPPRLPRPRPRPFAQPRP reads 0.199. Regarding RRIRRRPPRLPRPRPRPDQMPRP, the “shrunken log2 fold change” value was -0.0181. The value for RRIRNRPPRLPRPRPRPPRDPRP was 0.499; that for RRIRQRPPRLPRPRPRPSIGPRP was -0.268. For the sequence RRIRWRPPRLPRPRPRPMGSPRP, the “shrunken log2 fold change” value was -0.0192. Take RRIRWRPPRLPRPRPRPGMKPRP: the “shrunken log2 fold change” value turned out to be 0.0023.

Consider RRIRTRPPRLPRPRPRPPRVPRP, for which the “shrunken log2 fold change” value was 0.334. Take RRIRPRPPRLPRPRPRPYKKPRP: the “shrunken log2 fold change” value is -0.574.

In the case of RRIRCRPPRLPRPRPRPCKLPRP, the “shrunken log2 fold change” value was -0.896. For the sequence RRIRQRPPRLPRPRPRPVHIPRP, the “shrunken log2 fold change” value is -0.1. In the case of RRIRERPPRLPRPRPRPKRYPRP, the “shrunken log2 fold change” value was -0.051.

For RRIRHRPPRLPRPRPRPEHKPRP, the “shrunken log2 fold change” value came out at 0.000824. In the case of RRIRRRPPRLPRPRPRPEYKPRP, the “shrunken log2 fold change” value is -0.0169.

As to RRIRRRPPRLPRPRPRPGRKPRP, the “shrunken log2 fold change” value was 0.332. The result for RRIRLRPPRLPRPRPRPSCFPRP reads 0.172; that for RRIRPRPPRLPRPRPRPLCTPRP, 1.09. The value for RRIRMRPPRLPRPRPRPTKKPRP was 0.0359; that for RRIRARPPRLPRPRPRPLPNPRP was 0.286.

For RRIRKRPPRLPRPRPRPGVDPRP, the “shrunken log2 fold change” value was 0.824. In the case of RRIRYRPPRLPRPRPRPKFSPRP, the “shrunken log2 fold change” value was -0.434. The value for RRIRRRPPRLPRPRPRPWDFPRP was 0.0406. In the case of RRIRKRPPRLPRPRPRPQNVPRP, the “shrunken log2 fold change” value is -0.0694.

Regarding RRIRHRPPRLPRPRPRPHRIPRP, the “shrunken log2 fold change” value is -0.0803.

Take RRIRQRPPRLPRPRPRPMAAPRP: the “shrunken log2 fold change” value turned out to be 0.127. Take RRIRLRPPRLPRPRPRPRFCPRP: the “shrunken log2 fold change” value is -0.0895. On to RRIRQRPPRLPRPRPRPSCQPRP, for which the “shrunken log2 fold change” value was -0.834. The result for RRIRLRPPRLPRPRPRPYIAPRP reads -0.261. Take RRIRYRPPRLPRPRPRPRFIPRP: the “shrunken log2 fold change” value is -0.671. As for RRIRMRPPRLPRPRPRPWHLPRP, the “shrunken log2 fold change” value is -0.00137. RRIRQRPPRLPRPRPRPKVQPRP: the “shrunken log2 fold change” value amounted to 0.0205.

In the case of RRIRGRPPRLPRPRPRPTLQPRP, the “shrunken log2 fold change” value came to 0.779.

Consider RRIRHRPPRLPRPRPRPRGQPRP, for which the “shrunken log2 fold change” value is -0.0142. As to RRIRMRPPRLPRPRPRPERWPRP, the “shrunken log2 fold change” value worked out at 1.5. For the sequence RRIRIRPPRLPRPRPRPGNQPRP, the “shrunken log2 fold change” value was -0.839.

On to RRIRMRPPRLPRPRPRPQQPPRP, for which the “shrunken log2 fold change” value was 0.0363.

For the sequence RRIRHRPPRLPRPRPRPIMSPRP, the “shrunken log2 fold change” value was -0.161. With RRIRMRPPRLPRPRPRPKCWPRP, the “shrunken log2 fold change” value amounted to 1. As to RRIRSRPPRLPRPRPRPIKQPRP, the “shrunken log2 fold change” value was -0.13. RRIRLRPPRLPRPRPRPVEAPRP: the “shrunken log2 fold change” value was 0.224. With RRIRARPPRLPRPRPRPRVQPRP, the “shrunken log2 fold change” value came out at 0.359. Consider RRIRFRPPRLPRPRPRPGLCPRP, for which the “shrunken log2 fold change” value was determined as 0.606. For the sequence RRIRDRPPRLPRPRPRPYGTPRP, the “shrunken log2 fold change” value was -0.234. The result for RRIRYRPPRLPRPRPRPEDNPRP reads -0.0125; that for RRIRRRPPRLPRPRPRPRYLPRP, -0.0373; that for RRIRPRPPRLPRPRPRPLQIPRP, -0.161. On to RRIRQRPPRLPRPRPRPSYDPRP, for which the “shrunken log2 fold change” value was -0.251.

In the case of RRIRVRPPRLPRPRPRPHYQPRP, the “shrunken log2 fold change” value is -0.213.

For RRIRFRPPRLPRPRPRPDWYPRP, the “shrunken log2 fold change” value was -0.0899.

In the case of RRIRNRPPRLPRPRPRPAKKPRP, the “shrunken log2 fold change” value is -0.0505.

As for RRIRCRPPRLPRPRPRPVYIPRP, the “shrunken log2 fold change” value was -0.756. The value for RRIRMRPPRLPRPRPRPSDEPRP was 0.958; that for RRIRGRPPRLPRPRPRPDMYPRP was 0.0675. Regarding RRIRKRPPRLPRPRPRPHEMPRP, the “shrunken log2 fold change” value is 0.0317. Consider RRIRHRPPRLPRPRPRPLAYPRP, for which the “shrunken log2 fold change” value was -0.351.

On to RRIRHRPPRLPRPRPRPTVIPRP, for which the “shrunken log2 fold change” value was found to be 0.0211. The value for RRIRVRPPRLPRPRPRPSTQPRP was -0.0637. Consider RRIRHRPPRLPRPRPRPQYDPRP, for which the “shrunken log2 fold change” value is -1.12.

For RRIRCRPPRLPRPRPRPCPTPRP, the “shrunken log2 fold change” value came out at 0.0528. Take RRIRERPPRLPRPRPRPWNMPRP: the “shrunken log2 fold change” value is -0.0894. RRIRPRPPRLPRPRPRPSIVPRP: the “shrunken log2 fold change” value is -0.662.

In the case of RRIRFRPPRLPRPRPRPPGIPRP, the “shrunken log2 fold change” value amounted to 0.151. In the case of RRIRDRPPRLPRPRPRPLFQPRP, the “shrunken log2 fold change” value is 0.192. On to RRIRSRPPRLPRPRPRPHTPPRP, for which the “shrunken log2 fold change” value was -0.318. The value for RRIRMRPPRLPRPRPRPNYSPRP was -0.416; that for RRIRWRPPRLPRPRPRPANQPRP was 0.559; that for RRIRARPPRLPRPRPRPYISPRP was -0.132. For the sequence RRIRVRPPRLPRPRPRPGLPPRP, the “shrunken log2 fold change” value came out at 0.113. As for RRIRARPPRLPRPRPRPDRRPRP, the “shrunken log2 fold change” value turned out to be 0.086. Turning to RRIRGRPPRLPRPRPRPISGPRP, the “shrunken log2 fold change” value is 0.000749. Take RRIRIRPPRLPRPRPRPVQTPRP: the “shrunken log2 fold change” value is -0.0646. As for RRIRDRPPRLPRPRPRPAVVPRP, the “shrunken log2 fold change” value was determined as 0.0373. For RRIRFRPPRLPRPRPRPDDRPRP, the “shrunken log2 fold change” value came out at 0.00835. Regarding RRIRRRPPRLPRPRPRPAVHPRP, the “shrunken log2 fold change” value amounted to 0.321. Consider RRIRVRPPRLPRPRPRPTCTPRP, for which the “shrunken log2 fold change” value is -0.00861.

As to RRIRHRPPRLPRPRPRPCFAPRP, the “shrunken log2 fold change” value was found to be 0.0434. RRIRARPPRLPRPRPRPDSKPRP: the “shrunken log2 fold change” value came to 0.149. Regarding RRIRCRPPRLPRPRPRPNFVPRP, the “shrunken log2 fold change” value is -0.123. The result for RRIRDRPPRLPRPRPRPRYSPRP reads -0.662. Turning to RRIRCRPPRLPRPRPRPKQNPRP, the “shrunken log2 fold change” value amounted to 0.136. On to RRIRLRPPRLPRPRPRPAFTPRP, for which the “shrunken log2 fold change” value amounted to 0.238.

Take RRIRPRPPRLPRPRPRPLPVPRP: the “shrunken log2 fold change” value was -0.4. Regarding RRIRQRPPRLPRPRPRPHMYPRP, the “shrunken log2 fold change” value was -0.706. The value for RRIRERPPRLPRPRPRPLKYPRP was -0.38; that for RRIRDRPPRLPRPRPRPRQKPRP was 0.56. For RRIRTRPPRLPRPRPRPNDIPRP, the “shrunken log2 fold change” value is -0.873.

For RRIRIRPPRLPRPRPRPQPIPRP, the “shrunken log2 fold change” value is -0.00642. For the sequence RRIRFRPPRLPRPRPRPFEPPRP, the “shrunken log2 fold change” value was -0.0506. As for RRIRNRPPRLPRPRPRPEADPRP, the “shrunken log2 fold change” value amounted to 0.0747. As for RRIRWRPPRLPRPRPRPIDCPRP, the “shrunken log2 fold change” value amounted to 0.0353.

On to RRIRWRPPRLPRPRPRPGPKPRP, for which the “shrunken log2 fold change” value was 0.21.

Take RRIRSRPPRLPRPRPRPGDDPRP: the “shrunken log2 fold change” value is 0.0869.

With RRIRTRPPRLPRPRPRPDPGPRP, the “shrunken log2 fold change” value worked out at 0.0486.

On to RRIRCRPPRLPRPRPRPVVHPRP, for which the “shrunken log2 fold change” value was -0.55. Regarding RRIRFRPPRLPRPRPRPGHQPRP, the “shrunken log2 fold change” value was -0.233. Turning to RRIRARPPRLPRPRPRPTKYPRP, the “shrunken log2 fold change” value was -0.114. For the sequence RRIRRRPPRLPRPRPRPRSQPRP, the “shrunken log2 fold change” value turned out to be 0.533. Consider RRIRKRPPRLPRPRPRPFKWPRP, for which the “shrunken log2 fold change” value stood at 0.33. The result for RRIRMRPPRLPRPRPRPQHWPRP reads 0.155; that for RRIRMRPPRLPRPRPRPECDPRP, 2.82; that for RRIRARPPRLPRPRPRPVLVPRP, 0.0133. Take RRIRFRPPRLPRPRPRPLREPRP: the “shrunken log2 fold change” value worked out at 0.618. RRIRTRPPRLPRPRPRPKPQPRP: the “shrunken log2 fold change” value came to 0.203. Consider RRIRIRPPRLPRPRPRPPNWPRP, for which the “shrunken log2 fold change” value turned out to be 0.0636. Consider RRIRARPPRLPRPRPRPRAEPRP, for which the “shrunken log2 fold change” value was found to be 0.983. With RRIRCRPPRLPRPRPRPEHMPRP, the “shrunken log2 fold change” value was -0.201. With RRIRGRPPRLPRPRPRPAFAPRP, the “shrunken log2 fold change” value was determined as 0.89. Consider RRIRKRPPRLPRPRPRPSDKPRP, for which the “shrunken log2 fold change” value is -0.41. With RRIRARPPRLPRPRPRPFDMPRP, the “shrunken log2 fold change” value was 0.0608.
